These are literature values, as cited in publication PMC4776139, “Extended string-like binding of the phosphorylated HP1α N-terminal tail to the lysine 9-methylated histone H3 tail” (Scientific Reports, 2016).

This data set deals with H3K9me. Particulars: effect of N-terminal tail phosphorylation. An excerpt:
In mice there are three HP1 isoforms, HP1α, HP1β and HP1γ with highly conserved CDs that are thought to share a similar structural feature to interact with H3K9me. By contrast, the CDs of these isoforms are connected to a less-conserved N-terminal tail, which is hypothesized to contribute to their isoform-specific function. In HP1α, in particular, there are four successive serine residues in the N-terminal tail that are constitutively phosphorylated in vivo[13]. […] Howeve ...

B1: HP1α: mouse heterochromatin protein 1 isoform; chromodomain with N-terminal tail (protein, UniProt Q61686 1-191, looked up)
Chromobox protein homolog 5: MGKKTKRTADSSSSEDEEEYVVEKVLDRRMVKGQVEYLLKWKGFSEEHNTWEPEKNLDCPELISEFMKKYKKMKEGENNKPREKSEGNKRKSSFSNSADDIKSKKKREQSNDIARGFERGLEPEKIIGATDSCGDLMFLMKWKDTDEADLVLAKEANVKCPQIVIAFYEERLTWHAYPEDAENKEKESAKS
For B1, the “affinity for H3K9me, in words” value is “its affinity becomes much stronger when the N-terminal tail is phosphorylated”.
